In patent publication US20220089695A1 (NEW YORK UNIVERSITY, published 2022):

Columns and labels:
[1] = molecular target: Recombinant SARS-CoV-2-S1 protein with His tag (SARS-CoV-2, UniProt P0DTC2 16-685)
[2] = molecular target: T1, Fc-tagged SARS-CoV-2 S N-terminal domain (SARS-CoV-2; human, UniProt P0DTC2 14-305); test: Fc-tagged S domain on receptor-transfected HEK293T cells, CDS imaging
T1 construct: domain: NTD

[3] = molecular target: Human IgG1 Fc-tagged SARS-CoV-2 Spike (S) recombinant protein (SARS-CoV-2; human, UniProt P0DTC2 16-1213); test: Fc-tagged protein on receptor-transfected HEK293T cells, CDS imaging
[4] = molecular target: SARS-CoV-2 S protein displayed on lentiviral (HIV-GFP) pseudovirus (SARS-CoV-2, UniProt P0DTC2 14-1273); test: pseudovirus on transfected HEK293T cells on ice, anti-S staining, flow cytometry
[5] = molecular target: T2, Fc-tagged SARS-CoV-2 S2 subunit (SARS-CoV-2; human, UniProt P0DTC2 686-1213); test: CDS imaging on HEK293T cells expressing L-SIGN, anti-human Fc detection
T2 construct: domain: S2

[6] = molecular target: T2, Fc-tagged SARS-CoV-2 S2 subunit; test: CDS imaging on HEK293T cells expressing LSECtin, anti-human Fc detection
[7] = molecular target: T2, Fc-tagged SARS-CoV-2 S2 subunit; test: CDS imaging on HEK293T cells expressing DC-SIGN, anti-human Fc detection
[8] = molecular target: T3, Human IgG1 Fc-tagged SARS-CoV-2 S receptor-binding domain (SARS-CoV-2; human, UniProt P0DTC2 319-541); test: Fc-tagged protein on receptor-expressing HEK293T cells (FIG. 13B)
T3 construct: domain: RBD

B1: Recombinant DC-SIGN (CD209) with human Fc tag (Fc fusion)
chain: QVSKVPSSISQEQSRQDAIYQNLTQLKAAVGELSEKSKLQEIYQELTQLKAAVGELPEKSKLQEIYQELTRLKAAVGELPEKSKLQEIYQELTWLKAAVGELPEKSKMQEIYQELTRLKAAVGELPEKSKQQEIYQELTRLKAAVGELPEKSKQQEIYQELTRLKAAVGELPEKSKQQEIYQELTQLKAAVERLCHPCPWEWTFFQGNCYFMSNSQRNWHDSITACKEVGAQLVVIKSAEEQNFLQLQSSRSNRFTWMGLSDLNQEGTWQWVDGSPLLPSFKQYWNRGEPNNVGEEDCAEFSGNGWNDDKCNLAKFWICKKSAASCSRDEEQFLSPAPATPNPPPA
B1 was tested, and the “EC50 (read off the curve)” value [1] was ~0.8 µg/mL.

B2: Asialoglycoprotein Receptor 1 expressed on cells (receptor)
chain: MTKEYQDLQHLDNEESDHHQLRKGPPPPQPLLQRLCSGPRLLLLSLGLSLLLLVVVCVIGSQNSQLQEELRGLRETFSNFTASTEAQVKGLSTQGGNVGRKMKSLESQLEKQQKDLSEDHSSLLLHVKQFVSDLRSLSCQMAALQGNGSERTCCPVNWVEHERSCYWFSRSGKAWADADNYCRLEDAHLVVVTSWEEQKFVQHHIGPVNTWMGLHDQNGPWKWVDGTDYETGFKNWRPEQPDDWYGHGLGGGEDCAHFTDDGRWNDDVCQRPYRWVCETELDKASQEPPLL
notes: whole, on cells; also called ASGR1
B2: binds [2]; binds [3]; binds [4].

B3: C-type lectin domain family 10 member A expressed on cells (receptor)
chain: MTRTYENFQYLENKVKVQGFKNGPLPLQSLLQRLCSGPCHLLLSLGLGLLLLVIICVVGFQNSKFQRDLVTLRTDFSNFTSNTVAEIQALTSQGSSLEETIASLKAEVEGFKQERQAGVSELQEHTTQKAHLGHCPHCPSVCVPVHSEMLLRVQQLVQDLKKLTCQVATLNNNASTEGTCCPVNWVEHQDSCYWFSHSGMSWAEAEKYCQLKNAHLVVINSREEQNFVQKYLGSAYTWMGLSDPEGAWKWVDGTDYATGFQNWKPGQPDDWQGHGLGGGEDCAHFHPDGRWNDDVCQRPYHWVCEAGLGQTSQESH
notes: whole, on cells; also called CLEC10A
B3: binds [3]; binds [4].

B4: Liver/lymph node-specific intercellular adhesion molecule-3-grabbing integrin expressed on cells (receptor)
chain: MSDSKEPRVQQLGLLEEDPTTSGIRLFPRDFQFQQIHGHKSSTGCLGHGALVLQLLSFMLLAGVLVAILVQVSKVPSSLSQEQSEQDAIYQNLTQLKAAVGELSEKSKLQEIYQELTQLKAAVGELPEKSKLQEIYQELTRLKAAVGELPEKSKLQEIYQELTRLKAAVGELPEKSKLQEIYQELTRLKAAVGELPEKSKLQEIYQELTELKAAVGELPEKSKLQEIYQELTQLKAAVGELPDQSKQQQIYQELTDLKTAFERLCRHCPKDWTFFQGNCYFMSNSQRNWHDSVTACQEVRAQLVVIKTAEEQNFLQLQTSRSNRFSWMGLSDLNQEGTWQWVDGSPLSPSFQRYWNSGEPNNSGNEDCAEFSGSGWNDNRCDVDNYWICKKPAACFRDE
notes: whole, on cells; also called L-SIGN; CLEC4M
B4: binds [5].

B5: Liver and lymph node sinusoidal endothelial cell C-type lectin expressed on cells (receptor)
chain: MDTTRYSKWGGSSEEVPGGPWGRWVHWSRRPLFLALAVLVTTVLWAVILSILLSKASTERAALLDGHDLLRTNASKQTAALGALKEEVGDCHSCCSGTQAQLQTTRAELGEAQAKLMEQESALRELRERVTQGLAEAGRGREDVRTELFRALEAVRLQNNSCEPCPTSWLSFEGSCYFFSVPKTTWAAAQDHCADASAHLVIVGGLDEQGFLTRNTRGRGYWLGLRAVRHLGKVQGYQWVDGVSLSFSHWNQGEPNDAWGRENCVMMLHTGLWNDAPCDSEKDGWICEKRHNC
notes: whole, on cells; also called LSECtin; CLEC4G
B5: binds [6].

B6: Dendritic cell-specific intercellular adhesion molecule-3-grabbing nonintegrin expressed on cells (receptor)
chain: MSDSKEPRLQQLGLLEEEQLRGLGFRQTRGYKSLAGCLGHGPLVLQLLSFTLLAGLLVQVSKVPSSISQEQSRQDAIYQNLTQLKAAVGELSEKSKLQEIYQELTQLKAAVGELPEKSKLQEIYQELTRLKAAVGELPEKSKLQEIYQELTWLKAAVGELPEKSKMQEIYQELTRLKAAVGELPEKSKQQEIYQELTRLKAAVGELPEKSKQQEIYQELTRLKAAVGELPEKSKQQEIYQELTQLKAAVERLCHPCPWEWTFFQGNCYFMSNSQRNWHDSITACKEVGAQLVVIKSAEEQNFLQLQSSRSNRFTWMGLSDLNQEGTWQWVDGSPLLPSFKQYWNRGEPNNVGEEDCAEFSGNGWNDDKCNLAKFWICKKSAASCSRDEEQFLSPAPATPNPPPA
notes: whole, on cells; also called DC-SIGN; CD209
B6: binds [7].

B7: Tweety Family Member 2 expressed on cells (receptor)
chain: MQAARVDYIAPWWVVWLHSVPHVGLRLQPVNSTFSPGDESYQESLLFLGLVAAVCLGLNLIFLVAYLVCACHCRRDDAVQTKQHHSCCITWTAVVAGLICCAAVGVGFYGNSETNDGAYQLMYSLDDANHTFSGIDALVSGTTQKMKVDLEQHLARLSEIFAARGDYLQTLKFIQQMAGSVVVQLSGLPVWREVTMELTKLSDQTGYVEYYRWLSYLLLFILDLVICLIACLGLAKRSKCLLASMLCCGALSLLLSWASLAADGSAAVATSDFCVAPDTFILNVTEGQISTEVTRYYLYCSQSGSSPFQQTLTTFQRALTTMQIQVAGLLQFAVPLFSTAEEDLLAIQLLLNSSESSLHQLTAMVDCRGLHKDYLDALAGICYDGLQGLLYLGLFSFLAALAFSTMICAGPRAWKHFTTRNRDYDDIDDDDPFNPQAWRMAAHSPPRGQLHSFCSYSSGLGSQTSLQPPAQTISNAPVSEYMNQAMLFGRNPRYENVPLIGRASPPPTYSPSMRATYLSVADEHLRHYGNQFPA
notes: whole, on cells; also called TTYH2; TTHY2
B7: binds [8].
